Patent US20080267971A1
Numbering of substitutions follows the chain as printed.

Experiments:
[1] = biological target: human Ang-2 changed at positions 365 and 367 (human) (UniProt O15123); test: ELISA
[2] = biological target: Mouse/Human chimeric Ang-2 with the human StuI-TfiI fragment (mouse/human chimera) (UniProt O35608); test: ELISA
[3] = biological target: human Ang-2 V345M (human) (UniProt O15123); test: ELISA
[4] = biological target: Mouse/Human Ang-2 StuI chimeric molecule (mouse; human) (UniProt O35608); test: ELISA
[5] = biological target: T1, Human Ang-1/2 BsmI chimeric molecule (human); test: ELISA
T1 sequence: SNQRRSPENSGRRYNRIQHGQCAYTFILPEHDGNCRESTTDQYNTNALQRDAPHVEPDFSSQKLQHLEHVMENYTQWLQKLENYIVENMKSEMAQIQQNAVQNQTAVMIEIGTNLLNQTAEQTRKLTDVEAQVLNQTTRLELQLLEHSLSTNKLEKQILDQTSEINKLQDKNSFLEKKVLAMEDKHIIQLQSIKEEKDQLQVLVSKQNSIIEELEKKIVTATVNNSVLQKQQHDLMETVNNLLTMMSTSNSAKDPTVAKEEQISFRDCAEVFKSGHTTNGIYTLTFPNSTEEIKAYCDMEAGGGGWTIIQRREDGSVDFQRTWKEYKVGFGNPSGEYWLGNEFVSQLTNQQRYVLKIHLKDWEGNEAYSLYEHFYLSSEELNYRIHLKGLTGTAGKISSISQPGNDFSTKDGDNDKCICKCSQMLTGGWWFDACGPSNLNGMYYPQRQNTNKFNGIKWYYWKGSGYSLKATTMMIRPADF

[6] = biological target: human Ang-2 H375Q (human) (UniProt O15123); test: ELISA
[7] = biological target: human Ang-2443 (human) (UniProt O15123); test: ELISA
[8] = biological target: mouse Angiopoietin-2 (mouse) (UniProt O35608); test: ELISA; member tied by Table 16
[9] = biological target: human Angiopoietin-2 (human) (UniProt O15123); test: inhibition of rhAng-2 binding to its receptor

B1: mAb 5.39.1 (antibody, V domains shown)
VH: QVQLVQSGAEVTKPGASVKVSCKASGYTFTAYHMYWVRQAPGQGLEWMGWINPNSGGTNYAQKFQGRVTMTRDTSISTAYMELSRLRSDDSPVYYCARDQGIAAAGPFDYWGQGTLVTVSS
VL: EIVMTQSPATLSVSPGDRATLSCRASQSVSSNFAWYQQKPGQAPRLLIYGSSTRATGIPARFSGSGSGTEFTLTISSLQSEDFAVYYCQQYHYWWTFGQGTKVEFKR
Which % of binding to human Ang-2 [1] does the source give for B1 here?
The % of binding to human Ang-2 was 100%.

B2: mAb 5.88.3 (antibody, V domains shown)
VH: EVQMVESGGGLVQPGGSLRLSCAASGFTLRSYWMSWVRQAPGKGLEWVANIKEDGSEKYHVDSVKGRFTISRDNAENSLFLQMSSLRAEDTAVYYCARDMEASAGLFDYWGQGTLVTVSS
VL: B1 VL with D17E, T20I, V29I, F33L, S51A, H92N, F105I
For B2, which % of binding to human Ang-2 [1] is on record?
The % of binding to human Ang-2 was 100%.

B3: mAb 5.62.1 (antibody, V domains shown)
VH: EVQLVESGGGLVQPGGSLRLSCAASGFTFSSYWMSWVRQAPGKGLEWVANIKQDGSEKYYVDSVKGRFTISRDNAKNSLYLQMNSLRAEDTAVYYCARDPGIAVAGPFDYWGQGTLVTVSS
VL: B1 VL with D17E, F33L, S51A, S52F, H92N, Y93H, E104G, F105I
B3 was tested. Which % of binding to human Ang-2 [1] did it give?
Its % of binding to human Ang-2 is 100%.

B4: mAb 3.3.2 (antibody, V domains shown)
VH: B3 VH with A24V, P100Q
VL: B1 VL with D17E, S28T, N32D, F33L, S51A, T53I, Y87S, H92Y, Y93N, F105I
B4 was tested. Which % of binding to human Ang-2 [1] did it give?
The % of binding to human Ang-2 was 100%.

B5: mAb 5.86.1 (antibody, V domains shown)
VH: B1 VH with T12K, A31G, M48L, S91T, P92A, A97V, G112C
VL: DIRMTQSPSSLSASVGDRVTITCRASQRISTYLNWYQQKPGKAPKFLIYAASSLQSGVPSRFSGSGSGTDFTLTISSLQPEDFATYYCQQSYTTPFTFGPGTKVDIKR
B5 was tested. Which % of binding to human Ang-2 [1] did it give?
The % of binding to human Ang-2 was 100%.

B6: mAb 5.2.1 (antibody, part only; not given: light chain, V domains shown, part only)
VH: QVQLVESGGGVVQPGRSLRLSCAASGFTFSSYGMHWVRQAPGKGLEWVAVIWFDGFNKYYADSVKGRFTISRDNSKNTLYLQMNSLRAEDTAVYHCARDRGYSGYDHYYGMDVWGQGTTVTVSSA
What does the source list for B6?
% of binding to human Ang-2 [1]: 100%; % of binding to human Ang-2 [2]: 100%; % of binding to human Ang-2 [3]: 100%; % of binding to human Ang-2 [4]: 100%; % of binding to human Ang-2 [5]: 100%; % of binding to human Ang-2 [6]: 100%; % of binding to human Ang-2 [7]: 100%; % of immunoreactivity on human Ang-2 [8]: 100%; OD650 in inhibition assay [9]: 0.069 OD650

B7: mAb 6.3.1 (antibody, V domains shown)
VH: QVQLVQSGAEVKKPGASVKVSCKASGYTFTGYFMHWVPQAPGQGLEWMGWINPNSGGTNYAQNFQGRVTMTRDTSISTAYMELSRLRSDDTPVYYCARDPWQNWNSYFDYWGQGTLVTVSS
VL: DIQMTQSPSSLSASVGDRVTITCRASQSIRSYLNWYQQKPGKAPKVLIYAASSLQSGVPSRFSGSGSGTDFTLTISSLQPEDFATYYCQQSYSTLCSFGQGTKLEIKR
For B7, which % of binding to human Ang-2 [1] is on record?
Its % of binding to human Ang-2 is 100%.

B8: mAb 5.28.1 (antibody, V domains shown)
VH: EVQLVESGGIVVQPGGSLRLSCAASGFTFDDYTMHWVRQTPGKGLEWVSLISWDGGSTYYADSVKGRFTISRDNSKNSLYLQMNSLRTEDTALYYCAKDIDIAVAGTGFDHWGQGTLVTVSS
VL: EIVMTQSPATLSVSPGERATLSCRASQSVTSNLAWYQQKPGQAPRLLIYGALIRATGIPARFSGSGSGTEFTLTISSLQSEDFAVYYCQQYNNWPFTFGPGTKVDIKR
With B8 as the binder, how does the % of binding to human Ang-2 [1] read?
Its % of binding to human Ang-2 is 100%.

B9: mAb 3.28.1 (antibody, part only; not given: light chain, V domains shown, part only)
VH: EVQLVESGGGLVQPGGSLRLSCAASGFTFSSSWMSWVRQAPGKGLEWVANIKQDGSDKYYVDSVKGRFTISRDNAKNSLYLQMNSLRAEDTAVYYCVRDKGSGWFDYWGQGTLVTVSSA
With B9 as the binder, how does the % of binding to human Ang-2 [1] read?
Its % of binding to human Ang-2 is 100%.

What about the % of binding to human Ang-2 [2] of the same binder?
The % of binding to human Ang-2 was 31%.

And the % of binding to human Ang-2 [3]?
Its % of binding to human Ang-2 is 100%.

What about the % of binding to human Ang-2 [4] of the same binder?
Its % of binding to human Ang-2 is 100%.

What about the % of binding to human Ang-2 [5] of the same binder?
The % of binding to human Ang-2 was 100%.

What about the % of binding to human Ang-2 [6] of the same binder?
Its % of binding to human Ang-2 is 100%.

And the % of binding to human Ang-2 [7]?
The % of binding to human Ang-2 was 100%.

And the OD650 in inhibition assay [9]?
Its OD650 in inhibition assay is 0.0588 OD650.
